The record followed here is patent US20070099822A1, “Regulation of tissue mineralization and phosphate metabolism by asarm peptides” (priority 2003, published 2007).

The experiment deals with Male ICR-Swiss mice. In words: Intraperitoneal administration of Hu-MEPE and PTH (1-34) into mice, serum and urine assays. It is filed as in vivo. Particulars: for serum phosphate: vehicle 11.94; for serum 1,25-dihydroxy vitamin-D3: vehicle 25.2; for serum alkaline phosphatase: vehicle 65.06. How it is done: Intraperitoneal administration of Hu-MEPE and PTH (1-34) into mice. Male ICR-Swiss mice were used as recipients for intraperitoneal administration (100 μl) of 0.1% phosphate-buffered saline/0.1% bovine serum albumin (vehicle) and experimental conditions (Hu-MEPE and PTH 1-34) dissolved in 100 μL of vehicle. Two separate (repeat) experiments were conducted consisting of four groups with 6 and 7 animals per group. The control group was administered with 100 μL of vehicle (Group-1). Group-2 consisted of animals administered with 0.8 μg/injection of parathyroid hormone (PTH 1-34). Group 3 were injected with 0.4 μg/injection of Hu-MEPE and Group-4 with 4 μg/injection of Hu-MEPE. On day one, three bolus injections were given at 0, 3 h, and 6 h. Serum samples were then collected via retro-orbital bleed one hour after the 6 h bolus administration. The next day or 30 hours after the first bolus a fourth bolus (same amount) was given and after 1 h the animals were sacrificed and serum prepared after cardiac exsanguination. The total amounts of PTH and MEPE administered over the 30 h were 80 μg/kg/30 h PTH 1-34, 40 μg/kg/30 h Hu-MEPE (MEPE-40) and 400 μg/kg/30 h Hu-MEPE (MEPE-400). Each group was placed in a separate metabolic cage and urine was collected for the 6-hour period. After the first 6-hour urine collection mice were replaced in thoroughly cleaned metabolic cages for the remaining 24 hours. The second 24-hour urine was collected immediately after the animals were sacrificed. The urine volumes for the second and first collections were measured. Collecting urine samples from large numbers of small mice over the time frame of the experiment was not feasible. Therefore, urine samples from each group (n=7) were pooled and volumes measured via a specially designed collecting duct in the metabolic cage. To ensure reproducibility the experiment was repeated twice (the same changes occurred). To calculate the fractional excretion of phosphate (FEP) the following equation was used: 100−(100×(1−(A/B))) where A=(urine phosphorus in mg/dL)×(serum creatinine in mg/dL) and B=(urine creatinine in mg/dL)×(serum phosphorus in mg/dL). To calculate renal phosphorus clearance (RPC) in mL/minute following computation was used: (urine phosphorus in mg/dL)×(urinary volume in mL)/((serum phosphorus in mg/dL)×(time of collection in minutes)). The phosphate excretion index (PEI) was calculated using the same method described by Shimada et al. (Cloning and characterization of FGF23 as a causative factor of tumor-induced osteomalacia, Proc Natl Acad Sci USA 98:6500-6505, 2001) using the following formula: ((urinary concentration of phosphorus in mg/dL)/(serum concentration of phosphorus in mg/dL))/(total urinary creatinine in mg).
Serum and urine assays. Serum and urine assays for phosphate, calcium, chloride, potassium, creatinine, glucose and alkaline phosphatase were accomplished using 96 well format KC4-spectrophotometer multiplate kinetic/end-point analyses using routine methods and diagnostic-kits Sigma-Diagnostics). Serum 1,25-dihydroxy vitamin-D3 levels were estimated using the method of Reinhardt, et al. (A microassay for 1,25-dihydroxyvitamin D not requiring high performance liquid chromatography: application to clinical studies, J Clin Endocrinol Metab 58:91-98, 1984). Analysis of data for fractional excretion of phosphate (FEP) was carried out following the same method described previously by Shimada et al. (Mutant FGF-23 responsible for autosomal dominant hypophosphatemic rickets is resistant to proteolytic cleavage and causes hypophosphatemia in vivo, Endocrinology 143:3179-82, 2002) for FGF23 bolus administration studies and by Nesbitt et al. (Crosstransplantation of kidneys in normal and Hyp mice: Evidence that the Hyp mouse phenotype is unrelated to an intrinsic renal defect, J Clin Invest 89:1453-59, 1992) for renal cross-transplantation experiments in Hyp mice.
Statistical methods. […]

B1: Hu-MEPE: purified insect expressed full-length recombinant human MEPE (Matrix Extracellular Phosphoglycoprotein) (protein)
chain: PTFQPQTEKTKQSCVEEQRQEEKNKDNIGFHHLGKRINQELSSKENIVQERKKDLSLSEASENKGSSKSQNYFTNRQRLNKEYSISNKENTHNGLRMSIYPKSTGNKGFEDGDDAISKLHDQEEYGAALIRNNMQHIMGPVTAIKLLGEENKENTPRNVLNIIPASMNYAKAHSKDKKKPQRDSQAQKSPVKSKSTHRIQHNIDYLKHLSKVKKIPSDFEGSGYTDLQERGDNDISPFSGDGQPFKDIPGKGEATGPDLEGKDIQTGFAGPSEAESTHLDTKKPGYNEIPEREENGGNTIGTRDETAKEADAVDVSLVEGSNDIMGSTNFKELPGREGNRVDAGSQNAHQGKVEFHYPPAPSKEKRKEGSSDAAESTNYNEIPKNGKGSTRKGVDHSNRNQATLNEKQRFPSKGKSQGLPIPSRGLDNEIKNEMDSFNGPSHENIITHGRKYHYVPHRQNNSTRNKGMPQGKGSWGRQPHSNRRFSSRRRDDSSESSDSGSSSESDGD
Turning to B1, the urine phosphate by setting is: (7 h, MEPE-40 i.p., vehicle 31.8) 41.0 mg/dL; (7 h, MEPE-400 i.p., vehicle 31.8) 56.1 mg/dL; (31 h second urine, MEPE400, vehicle 175.9) 297.4 mg/dL. Moreover, the “fractional excretion of phosphate (FEP)” value (7 h, MEPE-400, vehicle 7.8%) was 14.43% and the “fractional excretion of phosphate (FEP)” value (31 h, MEPE-400, vehicle 28.7%) is reported as 65.0%. In addition, the serum phosphate by setting is: (31 h, MEPE-40 (40 ug/kg/30 h) i.p., not statistically significant) 10.6 mg/dL; (31 hours, MEPE-400 (400 ug/kg/30 h) i.p.) 8.23 mg/dL. Moreover, the “serum 1,25-dihydroxy vitamin-D3” value (31 h, MEPE-40, pooled) is 31.5 pg/mL and the “serum 1,25-dihydroxy vitamin-D3” value (31 h, MEPE-400, pooled) was 45.05 pg/mL. Besides, the serum alkaline phosphatase stood at 45.63 U/L (31 h, MEPE-40) and 46.31 U/L (31 h, MEPE-400). Also, the “urine phosphate vs vehicle” value (31 h, low-dose MEPE-40) was “not significantly different”. Also, for the setting “after 7 hours, i.p., PTH and MEPE animals”, the “serum phosphate vs vehicle” value is recorded as “no significant differences”. Besides, under “after 7 hours, PTH 80 ug/kg/30 h, low Hu-MEPE dose”, the “serum calcium vs vehicle” value is listed as “not significantly different”. Also, the FEP vs vehicle entry (low dose MEPE-40) is “not significantly different”.
